Reference: article PMC4658667

Target: CdiI^YPIII immunity protein from Yersinia pseudotuberculosis YPIII, His6-tagged (Yersinia pseudotuberculosis YPIII)
Assay: BLI

CdiA-CT^YPIII, C-terminal toxin domain of CdiA from Yersinia pseudotuberculosis YPIII (domain or fragment)
Kd: 16 nM
